Test results as given in PMC6023931 (Nature Communications, 2018).
Substitutions are numbered along the chain they refer to. Numbers in names are those of the source.

B1: ΔN-TLK2, unphosphorylated (N-terminal deletion, with coiled-coil region, kinase domain and C-tail) (domain or fragment, human, UniProt Q86UE8 191-772, looked up)
chain: TEHSCSSQKQISIQHRQTQSDLTIEKISALENSKNSDLEKKEGRIDDLLRANCDLRRQIDEQQKMLEKYKERLNRCVTMSKKLLIEKSKQEKMACRDKSMQDRLRLGHFTTVRHGASFTEQWTDGYAFQNLIKQQERINSQREEIERQRKMLAKRKPPAMGQAPPATNEQKQRKSKTNGAENETPSSGNTELKDTAPALGAHSLLRLTLAEYHEQEEIFKLRLGHLKKEEAEIQAELERLERVRNLHIRELKRIHNEDNSQFKDHPTLNDRYLLLHLLGRGGFSEVYKAFDLTEQRYVAVKIHQLNKNWRDEKKENYHKHACREYRIHKELDHPRIVKLYDYFSLDTDSFCTVLEYCEGNDLDFYLKQHKLMSEKEARSIIMQIVNALKYLNEIKPPIIHYDLKPGNILLVNGTACGEIKITDFGLSKIMDDDSYNSVDGMELTSQGAGTYWYLPPECFVVGKEPPKISNKVDVWSVGVIFYQCLYGRKPFGHNQSQQDILQENTILKATEVQFPPKPVVTPEAKAFIRRCLAYRKEDRIDVQQLACDPYLLPHIRKSVSTSSPAGAAIASTSGASNNSSSN
notes: Tousled-like kinase 2 (TLK2), human; lacks the 1-190 N-terminal fragment, holds the 191-450 region around the CC domains, the kinase domain and the C-tail; the text says once '1-191' and once '1-190' for the missing segment; also called TLK2L; source: E. coli NiCo21(DE3) or Rosetta (DE3) pLysS, co-expressed with lambda phosphatase, purified (Ni-NTA, monoQ, SEC)
B2: ΔN-TLK2-p, phosphorylated ΔN-TLK2 (domain or fragment, human, UniProt Q86UE8 191-772, looked up)
chain: B1 chain
modifications: autophosphorylated (not co-expressed with the lambda phosphatase); 41 phosphosites out of 67 possible Ser/Thr sites, mapped in Fig. 3c
notes: Tousled-like kinase 2 (TLK2), human; lacks the 1-190 N-terminal fragment, holds the CC region, the kinase domain and the C-tail; also called active homodimer (ΔN-TLK2); source: E. coli NiCo21(DE3) or Rosetta (DE3) pLysS, without lambda phosphatase, purified (Ni-NTA, monoQ, heparin, SEC)
B3: ΔN-TLK2-KD, kinase-dead ΔN-TLK2 (D613A) (domain or fragment, human, UniProt Q86UE8 191-772, looked up)
chain: B1 chain with D423A
notes: Tousled-like kinase 2 (TLK2), human; ΔN-TLK2 (lacks the 1-190 N-terminal fragment) with the D613A mutation; also called ΔN-TLK-KD; kinase-dead homodimer; source: E. coli NiCo21(DE3) or Rosetta (DE3) pLysS, purified

Biological target: the molecule itself
Assay: SEC-MALS; samples at 1 mg/ml, Superdex 200 Increase 10/300, 20 mM Tris-HCl, 150 mM NaCl, 0.5 mM TCEP, pH 8.0; run in triplicates

Protein | stoichiometry N | binding result
B1 | 2 | –
B2 | – | binds
B3 | – | binds
